Publication PMC12302650

Assays:
[1] = biological target: GTP-tubulin (biotinylated α/β-tubulin heterodimer with GTP-bound β-tubulin) (UniProt Q71U36); test: pull-down; supernatant depletion at equilibrium; varying concentrations of biotinylated GTP-tubulin on streptavidin-coated magnetic beads; BuGZ construct (or mEGFP control) in solution, BuGZ 1.19 μM; 4 °C; nocodazole present; depletion from the supernatant measured by immunoblotting
[2] = biological target: GDP-tubulin (biotinylated α/β-tubulin heterodimer with GDP-bound β-tubulin) (UniProt Q71U36); test: pull-down; supernatant depletion at equilibrium, same assay as for GTP-tubulin but with bead-bound GDP-tubulin; BuGZ construct (or mEGFP control) in solution; fit with Equation S2 for wild-type BuGZ
[3] = biological target: GDP-tubulin (biotinylated α/β-tubulin heterodimer with GDP-bound β-tubulin) (UniProt Q71U36)

Kd [1]: 0.408 µM | Kd [2]: 0.0542 µM | GTP α-32P incorporation into GDP-tubulin at equilibrium, increase relative to controls [3]: 57.4%
Substance: BuGZ-ΔGLEBS (from UniProt Q7ZXV8 1-452) (natural protein)
